6 molecules from patent publication US20180009871A1 (INTARCIA THERAPEUTICS, published 2018) can be followed below.

Where no end group is shown, it is not given here. [ ]: non-standard residue; d: D form. Aib = CC(C)(N)C(=O)O

In assay [1] the target is human glucagon receptor (GCGR) (human, UniProt P47871 26-477). Kind of assay: cell-based or functional assay.
The target of assay [2] is human GLP-1 receptor (GLP-1R) (human, UniProt P43220 24-463). In words: cell-based or functional assay.
Chain of human GLP-1 receptor (GLP-1R) (P43220 24-463): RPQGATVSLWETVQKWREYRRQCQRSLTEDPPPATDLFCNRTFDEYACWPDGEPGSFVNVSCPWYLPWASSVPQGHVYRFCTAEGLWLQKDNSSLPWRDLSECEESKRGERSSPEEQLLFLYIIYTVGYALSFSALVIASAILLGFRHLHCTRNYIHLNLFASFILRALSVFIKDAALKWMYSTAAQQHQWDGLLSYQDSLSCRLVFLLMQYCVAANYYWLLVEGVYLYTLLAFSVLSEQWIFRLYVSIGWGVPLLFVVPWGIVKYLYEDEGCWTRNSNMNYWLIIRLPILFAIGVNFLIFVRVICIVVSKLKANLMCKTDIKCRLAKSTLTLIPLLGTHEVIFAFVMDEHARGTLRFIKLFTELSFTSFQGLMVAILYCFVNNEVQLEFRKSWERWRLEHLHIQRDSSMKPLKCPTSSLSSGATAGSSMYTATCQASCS

B1: Compound A60 (peptide)
peptide: YTHGTFTSDYSKYLD[Aib]KRAQEFV[Aib]WLEDEPSSGKPPPS-OH
modifications: N-terminus assumed
SMILES: CC(C)C[C@H](NC(=O)[C@H](Cc1ccc(O)cc1)NC(=O)[C@H](CCCCN)NC(=O)[C@H](CO)NC(=O)[C@H](Cc1ccc(O)cc1)NC(=O)[C@H](CC(=O)O)NC(=O)[C@H](CO)NC(=O)[C@@H](NC(=O)[C@H](Cc1ccccc1)NC(=O)[C@@H](NC(=O)CNC(=O)[C@H](Cc1c[nH]cn1)NC(=O)[C@@H](NC(=O)[C@@H](N)Cc1ccc(O)cc1)[C@@H](C)O)[C@@H](C)O)[C@@H](C)O)C(=O)N[C@@H](CC(=O)O)C(=O)NC(C)(C)C(=O)N[C@@H](CCCCN)C(=O)N[C@@H](CCCNC(=N)N)C(=O)N[C@@H](C)C(=O)N[C@@H](CCC(N)=O)C(=O)N[C@@H](CCC(=O)O)C(=O)N[C@@H](Cc1ccccc1)C(=O)N[C@H](C(=O)NC(C)(C)C(=O)N[C@@H](Cc1c[nH]c2ccccc12)C(=O)N[C@@H](CC(C)C)C(=O)N[C@@H](CCC(=O)O)C(=O)N[C@@H](CC(=O)O)C(=O)N[C@@H](CCC(=O)O)C(=O)N1CCC[C@H]1C(=O)N[C@@H](CO)C(=O)N[C@@H](CO)C(=O)NCC(=O)N[C@@H](CCCCN)C(=O)N1CCC[C@H]1C(=O)N1CCC[C@H]1C(=O)N1CCC[C@H]1C(=O)N[C@@H](CO)C(=O)O)C(C)C
Regarding B1, in assay [1], the “hGCGR pEC50 (cAMP)” value was determined as 11.3 pEC50. In addition, in assay [2], the “hGLP1 pEC50 (cAMP)” value is below 9 pEC50.
On the same counts, the results for YSHGTFTSDYSKYLDSARAQEFVKWLEDEPSSGKPPPS-OH [Compound A61] are 11.4 pEC50 and below 9 pEC50.

B2: Compound A56 (peptide)
peptide: YSHGTFTSDYSKYLD[Aib]KRAQEFV[Aib]WLEDEPKSKAPPPS-OH
modifications: N-terminus assumed
SMILES: CC(C)C[C@H](NC(=O)[C@H](Cc1ccc(O)cc1)NC(=O)[C@H](CCCCN)NC(=O)[C@H](CO)NC(=O)[C@H](Cc1ccc(O)cc1)NC(=O)[C@H](CC(=O)O)NC(=O)[C@H](CO)NC(=O)[C@@H](NC(=O)[C@H](Cc1ccccc1)NC(=O)[C@@H](NC(=O)CNC(=O)[C@H](Cc1c[nH]cn1)NC(=O)[C@H](CO)NC(=O)[C@@H](N)Cc1ccc(O)cc1)[C@@H](C)O)[C@@H](C)O)C(=O)N[C@@H](CC(=O)O)C(=O)NC(C)(C)C(=O)N[C@@H](CCCCN)C(=O)N[C@@H](CCCNC(=N)N)C(=O)N[C@@H](C)C(=O)N[C@@H](CCC(N)=O)C(=O)N[C@@H](CCC(=O)O)C(=O)N[C@@H](Cc1ccccc1)C(=O)N[C@H](C(=O)NC(C)(C)C(=O)N[C@@H](Cc1c[nH]c2ccccc12)C(=O)N[C@@H](CC(C)C)C(=O)N[C@@H](CCC(=O)O)C(=O)N[C@@H](CC(=O)O)C(=O)N[C@@H](CCC(=O)O)C(=O)N1CCC[C@H]1C(=O)N[C@@H](CCCCN)C(=O)N[C@@H](CO)C(=O)N[C@@H](CCCCN)C(=O)N[C@@H](C)C(=O)N1CCC[C@H]1C(=O)N1CCC[C@H]1C(=O)N1CCC[C@H]1C(=O)N[C@@H](CO)C(=O)O)C(C)C
For B2, the “hGCGR pEC50 (cAMP)” value in assay [1] turned out to be 12.3 pEC50. The “hGLP1 pEC50 (cAMP)” value in assay [2] is below 9 pEC50.

B3: Compound A58 (peptide)
peptide: YSHGTFTSDYSKYLD[Aib]KRAQEFV[Aib]WLEDEPKSKSPPPS-OH
modifications: N-terminus assumed
SMILES: CC(C)C[C@H](NC(=O)[C@H](Cc1ccc(O)cc1)NC(=O)[C@H](CCCCN)NC(=O)[C@H](CO)NC(=O)[C@H](Cc1ccc(O)cc1)NC(=O)[C@H](CC(=O)O)NC(=O)[C@H](CO)NC(=O)[C@@H](NC(=O)[C@H](Cc1ccccc1)NC(=O)[C@@H](NC(=O)CNC(=O)[C@H](Cc1c[nH]cn1)NC(=O)[C@H](CO)NC(=O)[C@@H](N)Cc1ccc(O)cc1)[C@@H](C)O)[C@@H](C)O)C(=O)N[C@@H](CC(=O)O)C(=O)NC(C)(C)C(=O)N[C@@H](CCCCN)C(=O)N[C@@H](CCCNC(=N)N)C(=O)N[C@@H](C)C(=O)N[C@@H](CCC(N)=O)C(=O)N[C@@H](CCC(=O)O)C(=O)N[C@@H](Cc1ccccc1)C(=O)N[C@H](C(=O)NC(C)(C)C(=O)N[C@@H](Cc1c[nH]c2ccccc12)C(=O)N[C@@H](CC(C)C)C(=O)N[C@@H](CCC(=O)O)C(=O)N[C@@H](CC(=O)O)C(=O)N[C@@H](CCC(=O)O)C(=O)N1CCC[C@H]1C(=O)N[C@@H](CCCCN)C(=O)N[C@@H](CO)C(=O)N[C@@H](CCCCN)C(=O)N[C@@H](CO)C(=O)N1CCC[C@H]1C(=O)N1CCC[C@H]1C(=O)N1CCC[C@H]1C(=O)N[C@@H](CO)C(=O)O)C(C)C
For B3, in assay [1], the “hGCGR pEC50 (cAMP)” value is 12.2 pEC50. In addition, the “hGLP1 pEC50 (cAMP)” value in assay [2] is below 9 pEC50.

B4: Compound A57 (peptide)
peptide: YSHGTFTSDYSKYLD[Aib]KRAQEFV[Aib]WLEDEPKSKQPPPS-OH
modifications: N-terminus assumed
SMILES: CC(C)C[C@H](NC(=O)[C@H](Cc1ccc(O)cc1)NC(=O)[C@H](CCCCN)NC(=O)[C@H](CO)NC(=O)[C@H](Cc1ccc(O)cc1)NC(=O)[C@H](CC(=O)O)NC(=O)[C@H](CO)NC(=O)[C@@H](NC(=O)[C@H](Cc1ccccc1)NC(=O)[C@@H](NC(=O)CNC(=O)[C@H](Cc1c[nH]cn1)NC(=O)[C@H](CO)NC(=O)[C@@H](N)Cc1ccc(O)cc1)[C@@H](C)O)[C@@H](C)O)C(=O)N[C@@H](CC(=O)O)C(=O)NC(C)(C)C(=O)N[C@@H](CCCCN)C(=O)N[C@@H](CCCNC(=N)N)C(=O)N[C@@H](C)C(=O)N[C@@H](CCC(N)=O)C(=O)N[C@@H](CCC(=O)O)C(=O)N[C@@H](Cc1ccccc1)C(=O)N[C@H](C(=O)NC(C)(C)C(=O)N[C@@H](Cc1c[nH]c2ccccc12)C(=O)N[C@@H](CC(C)C)C(=O)N[C@@H](CCC(=O)O)C(=O)N[C@@H](CC(=O)O)C(=O)N[C@@H](CCC(=O)O)C(=O)N1CCC[C@H]1C(=O)N[C@@H](CCCCN)C(=O)N[C@@H](CO)C(=O)N[C@@H](CCCCN)C(=O)N[C@@H](CCC(N)=O)C(=O)N1CCC[C@H]1C(=O)N1CCC[C@H]1C(=O)N1CCC[C@H]1C(=O)N[C@@H](CO)C(=O)O)C(C)C
With B4, in assay [1], the “hGCGR pEC50 (cAMP)” value came to 12 pEC50. Moreover, in assay [2], the “hGLP1 pEC50 (cAMP)” value was below 9 pEC50.

B5: Compound A59 (peptide)
peptide: YSHGTFTSDYSKYLD[Aib]KRAQEFV[Aib]WLEDEPSSKQPPPS-OH
modifications: N-terminus assumed
SMILES: CC(C)C[C@H](NC(=O)[C@H](Cc1ccc(O)cc1)NC(=O)[C@H](CCCCN)NC(=O)[C@H](CO)NC(=O)[C@H](Cc1ccc(O)cc1)NC(=O)[C@H](CC(=O)O)NC(=O)[C@H](CO)NC(=O)[C@@H](NC(=O)[C@H](Cc1ccccc1)NC(=O)[C@@H](NC(=O)CNC(=O)[C@H](Cc1c[nH]cn1)NC(=O)[C@H](CO)NC(=O)[C@@H](N)Cc1ccc(O)cc1)[C@@H](C)O)[C@@H](C)O)C(=O)N[C@@H](CC(=O)O)C(=O)NC(C)(C)C(=O)N[C@@H](CCCCN)C(=O)N[C@@H](CCCNC(=N)N)C(=O)N[C@@H](C)C(=O)N[C@@H](CCC(N)=O)C(=O)N[C@@H](CCC(=O)O)C(=O)N[C@@H](Cc1ccccc1)C(=O)N[C@H](C(=O)NC(C)(C)C(=O)N[C@@H](Cc1c[nH]c2ccccc12)C(=O)N[C@@H](CC(C)C)C(=O)N[C@@H](CCC(=O)O)C(=O)N[C@@H](CC(=O)O)C(=O)N[C@@H](CCC(=O)O)C(=O)N1CCC[C@H]1C(=O)N[C@@H](CO)C(=O)N[C@@H](CO)C(=O)N[C@@H](CCCCN)C(=O)N[C@@H](CCC(N)=O)C(=O)N1CCC[C@H]1C(=O)N1CCC[C@H]1C(=O)N1CCC[C@H]1C(=O)N[C@@H](CO)C(=O)O)C(C)C
Consider B5, for which the “hGCGR pEC50 (cAMP)” value in assay [1] is 12.2 pEC50. Besides, in assay [2], the “hGLP1 pEC50 (cAMP)” value was below 9 pEC50.
